Data taken from the nanobody polyreactivity screen of Harvey et al. (2022).

Experiment: yeast display, Sf9 membrane polyspecificity reagent, FACS + sequencing; frameworks hold sequencing errors
Method in brief: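 A synthetic nanobody library was expressed on Saccharomyces cerevisiae BJ5465 by galactose induction for 36–48 hours. The library was stained for 1 hour at 4 °C with 10% biotinylated, detergent-solubilized Sf9 membrane reagent and enriched with streptavidin microbeads before FACS. Low and high (top ~1%) gates were set on anti-HA fluorescence for expression and streptavidin fluorescence for reagent binding, and each polyreactivity label reflects the gate of origin.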

Row | Sequence | polyreactivity (PSR sort gate)
1 | QVQLVESGGGLVQAGASLRLSCAASGSTFYFYTMGWYRQAPWKERELVAAITRDGSTYYADSVKGRFTISRDNAKNTVYLQMNSLKPEDTAVYYCNALRWAYKFSAYYYWGQGTQVSVSS | low polyreactivity
2 | QVQLVESGGGLVQAGASLRLSCAASGSTYVRNAMGWYRQAPGKERELVAAITSGGNTYADSVKGRFTISRDNAKNTVYLQMNSLKPEDTAVYYSAAANEFGDVWAQFDYWGQGTQVTVSS | low polyreactivity
3 | QVQLVESGGGLVQAGASLRLSCAASVSIFDTNAMGWYRQAPGKERELVASISSGGGSTYYADSVKGRFTISRDNAKNTVYLQMNSLKPEDTAVYFCARRIGHGSRPYWLETWRYAYDYWGQGSQVTVSS | low polyreactivity
4 | QVQLVESGGGLVQAGATIRLSCAASVRTFESNALGWYRQEPGKERELVAGITSGGITNYADSVKGRFTISRDNAKNNVYLQMNSLKPEDTAVYYCEFYYWGQGTQVTVSS | low polyreactivity
5 | QVQLVESGGGLVQAGCRLRLSCAAAAYIYRYAMGWYIQAPGKEREFVAAITWNGGSTYYADSVNGRFTISRDNAKITVYLQMNSLKPEDTGVYYCADDWSYYRRHFDYWGHGTQVTVSS | high polyreactivity
6 | QVQLVESGGGLVQAGCSLGLSCAASGRIVDYKAMGWYRQAPGKEWELVATLTSSSVRTHYPDSLKGRFSISRDNAKNTVYLQMNSLNPEDTSVYYWNAAYGPRYPRRYDYWGQGTQVTVSS | low polyreactivity
7 | QVQLVESGGGLVQAGCSLRGSCAAYRSTFIRYAMGWSRPAPGKERELVAAITWRGGSTYYADSVKGRFTISRDNEKNTVYLQMKSLKPDDSAVSFCAARDRDTRNYYWVQGTQVTVSS | high polyreactivity
8 | QVQLVESGGGLVQAGCSLRISCAASGITFGRKTMGWSRQAPGKERELVAAIDSGGNTYADSVKGRFTISRDNAKNTVYLQMNSLKPEDTAVYYCAVDGGEFSSYGYWGQGTQVTVSS | low polyreactivity
9 | QVQLVESGGGLVQAGCSLRLICAAAGIIFSSYAMGWYRQAPGKERELVAAISWNGGRTYYADSVKGRFTISRDNAKNTVYLQMNSLKPEDTAVYYCAAPHSVPDLHSGDYWGQGTQVTVSS | low polyreactivity
10 | QVQLVESGGGLVQAGCSLRLICAASGLYAMGWYRQAPGKERELVADINSSGGSITNYADSVKGRFTISRDNAKNTVYLQMNSLKPEDTAVYDCAAPALGNYFYGYDYWGQGTQVTVSS | low polyreactivity
11 | QVQLVESGGGLVQAGCSLRLRCAASGFTFYSYAMGWYRQAPGKERELVANITIGGSTYADSVKGRFTISRDNAKNNVYLQMNSLNPEDTAVYYCARGYRVVGDPLYGEYDYWGQGSQVTVSS | low polyreactivity
12 | QVQLVESGGGLVQAGCSLRLSCAASGFIFGPNAMGWYRQAPGKERELVAAISWIGSSTYYADSVKGRFTISRDNAKNTVYLQMNSLKPQDNAVYYCAADSSERRLMDFDYWGQGTQVTVSS | low polyreactivity
13 | QVQLVESGGGLVQAGCSLRLSCAASGFIFIRYAKGWYRQAPGQESELVASISSGGSTYYADSVKGRFTISRDNAKNTVYLQMNSLKPEDTAVYYCAAVFSKGLEGDYWGQGTQVTVSS | high polyreactivity
14 | QVQLVESGGGLVQAGCSLRLSCAASGFILNWYAMGCYRQAPGKERELVAAISWTTSDTYYADSVKGRFTISRDNAKHTVYLQMNSLKPEDQAVYYCATQGYISFPPPAYYEYNYWGQGTQETVSS | low polyreactivity
15 | QVQLVESGGGLVQAGCSLRLSCAASGFILSDNAMGWYRQAPGKERELVAAINSGGSTYYADSVKGRFTISRDNAKNTVYFQMNSLKPEDSAVYYCAADYSTWLRAYDYWGQGTQVTVSS | low polyreactivity
16 | QVQLVESGGGLVQAGCSLRLSCAASGFTFAKYAMGRYRQAPGKERELVAAITYRDGSTYYADSVKGRFTISRDYAKNTVYLQMNSLKPEDSAVYYCAAVASYVRYGYWGQGTQVTVSS | high polyreactivity

Row | Sequence | polyreactivity (PSR sort gate)
17 | QVQLVESGGGLVQAGCSLRLSCAASGFTFFRNAMGWYRQAPGKERELVAAISGSGGSTYYADSVKGRFTISRDNAKNTVYLQMNSLKPEDTAVYYCATYSYPAKVREAYNYWGQGTQVTVSS | low polyreactivity
18 | QVQLVESGGGLVQAGCSLRLSCAASGFTFGDNAMGWYRQAPGKDRELDARITGDGSTYYADSVKGRFTISRDNAKNTVYLQTNSLKPEDTAVYYCAADYSPRYTQIEYGYWGQGTQVTVSS | low polyreactivity
19 | QVQLVESGGGLVQAGCSLRLSCAASGFTFRANGMGWYRQAPGKERELVATITSGGTTNYADSVKGRFTISRDNAKNTVYLQMNSLKPEDTAVYYCAKRFGPAYFRLYDYWGQGTQVTVSS | low polyreactivity
20 | QVQLVESGGGLVQAGCSLRLSCAASGFTFRYYAMGSYRQAPGKERELVSAISQSGGLTFYADSVKGRFTISRDNAKITVYLQMNSLKPVDTAVFYCAAGRRTYPSKYGSWGQGSQVTVSS | high polyreactivity
21 | QVQLVESGGGLVQAGCSLRLSCAASGGTFRSNAMGWYRKAPGKERELVAASTNYADSVKGRFTISRDNAKNTVYLQMNSLKPEDTAVYYCAAGPTDSQTGMDYWGQGTQVTVSS | low polyreactivity
22 | QVQLVESGGGLVQAGCSLRLSCAASGGTFSLNAMGCYRQAPGKERELVAAITWTGDRTYYADSVKGRFTISRDNAKNTVYLQMNSLKPEDTAVYYCAAVGGYYPGDYWGQGTQVTVSS | low polyreactivity
23 | QVQLVESGGGLVQAGCSLRLSCAASGITFELYAMGSYRQAPGKERELVAAISSNGGITFYADSVKGRFTISRDYAKNTVYLQMKSLKPEDTEVYYCAARYVRYPRYDYWGQGTQVTVSS | high polyreactivity
24 | QVQLVESGGGLVQAGCSLRLSCAASGITFTYYAMGWYRQAPGKERELVAAINTGGNTNYADSVKGRFTISRDYAKNSVYLQMNSLKPEDTAVYYCAAYWYYYWWYDYWGQGTQVSVSS | high polyreactivity
25 | QVQLVESGGGLVQAGCSLRLSCAASGITFVYYAMGRYRQAAGKERELVAAITTGGSTNYADSVKGRFTISRDNAKYTVYLQMNSLKPEDTAVYYCNKRPVILYDYWGQGTQVTVSS | low polyreactivity
26 | QVQLVESGGGLVQAGCSLRLSCAASGNTYYSYTMGWYRQAPGKERELVAAITGSGSTYYADSVKGRFTISRDNAKNTVYLQMNSLKPEDTAVYYCASRYVERHTDYYYWGQGTQVTVSS | low polyreactivity
27 | QVQLVESGGGLVQAGCSLRLSCAASGRIDRRYAMGWYRQAPGKERDLFAAISSRGGRTYYADSVKGRFTISRDNAMNTVYLQMNSLKQEDTAVYYCAARPAGYGHYKYYYWGKGTQVTVSS | high polyreactivity
28 | QVQLVESGGGLVQAGCSLRLSCAASGRIFRGNAMGWYRQAPGKERELVARITGNDGDTYYADSVKGRFTISRDNAKNTVYLQMNSLNPEDTAVYYCATDTSSYRRRYYYWGQGTQVTVSS | low polyreactivity
29 | QVQLVESGGGLVQAGCSLRLSCAASGRIFRKNTMGWYIQAPGKEWELVAAISFRGASTYYADSVKGRFTISRDNAKNTVYLQMNSLKPEDTAVYYCATVRAHASRLGYDYWGQGTQVTVSS | high polyreactivity
30 | QVQLVESGGGLVQAGCSLRLSCAASGRIFTHNAMGWYRPAPGKERELVAAITSGGRTTYADSVKGRFTFSRDNAKNTVYLQMHSLNPEDTAVYYCNADTGLGSLDFDKRDYWGQGTQVTVSS | low polyreactivity
31 | QVQLVESGGGLVQAGCSLRLSCAASGRIFTSNAMGWYRQAPGTERELVAVISRRGGSTYYADSVKGRFTISRDNAMNTVYLQMNSLKPEDTAVYYCARRPYSYTRYEYWGQGTQVTVSS | low polyreactivity
32 | QVQLVESGGGLVQAGCSLRLSCAASGRIIDGYAMGWYRQAPGKEREFVAAITWIGGRTYYADSVKGRFTISRDNAKITVYLHMNSLKPEDTAVYYCAVVQSRYRGRFDYWGQGTQVTVTS | high polyreactivity
